Results published in PMC4110032, “Crystal Structure of the Stress-Inducible Human Heat Shock Protein 70 Substrate-Binding Domain in Complex with Peptide Substrate” (PLoS ONE, 2014).

Target: T1, human HSP70 substrate-binding domain (residues 386–616) (human, UniProt P0DMV8 386-616)
T1 construct: Cloned into pET25 between NdeI and XhoI; The His6 tag was retained for crystallisation; A selenomethionine-derivatised form was used for phasing; also called HSP70-SBD; HSP70 SBD; source: E. coli BL21 Star (DE3), purified (Ni-NTA; size-exclusion chromatography when necessary); not shown: His6, N-terminal, kept
Assay: crystal structure; co-crystallised by hanging drop vapour diffusion; 5 mM NRLLLTG mixed with 400 µM HSP70 (386–616), preheated to 42°C for 15 min and cooled to room temperature; 0.1 M Bis-Tris pH 5.5, 0.2 M Li2SO4, PEG3350; 2 Å, space group C2, two complexes per asymmetric unit
Settings: both partners purified

T1 sequence (P0DMV8 386-616): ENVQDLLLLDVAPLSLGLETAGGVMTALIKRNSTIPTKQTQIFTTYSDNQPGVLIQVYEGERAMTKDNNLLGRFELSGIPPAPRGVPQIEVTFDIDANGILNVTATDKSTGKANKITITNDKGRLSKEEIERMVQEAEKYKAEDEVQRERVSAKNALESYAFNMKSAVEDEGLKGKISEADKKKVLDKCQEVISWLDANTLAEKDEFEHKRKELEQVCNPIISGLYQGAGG

- binding result: binds
B1: NRLLLTG peptide (peptide)
peptide: NRLLLTG
notes: hepta-peptide model substrate used in earlier DnaK structural analyses; Residues of the peptide are numbered 1-7 with the suffix p (Leu5p); also called hepta-peptide model substrate; NRLLLTG substrate peptide; source: bought: Biomatik
